In the data set the target is alpha 1 antitrypsin (α1AT), P01009.
Chain of alpha 1 antitrypsin (α1AT), P01009 (P01009 whole entry, looked up): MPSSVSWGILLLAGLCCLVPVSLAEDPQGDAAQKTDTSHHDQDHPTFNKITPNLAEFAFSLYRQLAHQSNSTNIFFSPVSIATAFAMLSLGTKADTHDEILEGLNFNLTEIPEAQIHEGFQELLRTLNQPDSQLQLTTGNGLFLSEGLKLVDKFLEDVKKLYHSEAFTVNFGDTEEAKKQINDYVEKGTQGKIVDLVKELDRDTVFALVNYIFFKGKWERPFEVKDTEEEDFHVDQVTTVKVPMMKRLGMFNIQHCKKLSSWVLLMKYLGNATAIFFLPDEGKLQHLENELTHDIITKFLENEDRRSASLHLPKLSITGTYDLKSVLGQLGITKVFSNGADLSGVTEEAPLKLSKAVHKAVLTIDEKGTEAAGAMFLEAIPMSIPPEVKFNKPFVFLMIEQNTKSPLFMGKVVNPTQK

B1: neutrophil proteinase 3 (PR3), purified native human PR3 (protein)
chain: IVGGHEAQPHSRPYMASLQMRGNPGSHFCGGTLIHPSFVLTAAHCLRDIPQRLVNVVLGAHNVRTQEPTQQHFSVAQVFLNNYDAENKLNDVLLIQLSSPANLSASVATVQLPQQDQPVPHGTQCLAMGWGRVGAHDPPAQVLQELNVTVVTFFCRPHNICTFVPRRKAGICFGDSGGPLICDGIIQGIDSFVIWGCATRLFPDFFTRVALYVDWIRSTLR
With B1, the “enzymatic activity of PR3 (fluorescent substrate Abz-VADnVADYQ-YNO2)” value is on record as “the addition of alpha 1 anti-trypsin (1AT) which is a natural PR3 inhibitor did not induce any degradation of the PR3 substrate”.

These data come from US20230203197.
